Experimental data taken from patent CN111620945A (JIANGSU DISEASE CONTROL AND PREVENTION CENTER JIANGSU …, dated 2020).

B1: FC11 (antibody, V domains shown)
VH: EVQLLESGGGVVQPGRSLRLSCAASGFTFSYYGMHWVRQAPGTGLEWVAVISYDGSNEYYADSVKGRFTISRDNSKNTLYLQMNSLRAEDTAVYYCAKAMFLGDSSGLTGLDMDVWGQGTTVTVSS
VL: DIELTQSPGTLSLSPGERATLSCRASQSVSSYLAWYQQKPGQAPRLLIYDASNRATGIPARFSGSGSGTDFTLTISSLEPEDFALYYCQQRGNWPPTFGGGTKLEIK
B2: FC05 (antibody, V domains shown)
VH: VQLLEQSGAEVKKPGASVRVSCKVSGYTLPEVAMHWVRQAPGKGLEWMGGFDPEDGETIYAQKFQGRVTMTEDTSTDTAYMELSSLRSEDTAVYYCATTTPFSSSFWFDPWGQGTLVTVSS
VL: QSVLTQAPSVSGAPGQKVTISCSGSSSNIGNNYVSWYQQLPGTAPKLLIYDNNKRPSGIPDRFSGSKSGTSATLGITGLQTGDEADYYCGTWDSSLSAVVFGGGTKLTVL
B3: FC08 (antibody, V domains shown)
VH: VQLLQQSGAEVKKPGSSVKVSCKASGGTFSSYAISWVRQAPGQGLEWMGGIIPILGIANYAQKFQGRVTITADKSTSTAYMELSSLRSEDTAVYYCVRERGYSGYGAAYYFDYWGQGTLVTVSS
VL: QSVLTQPPSVSGAPGQRVTISCTGSSSNIGAGYDVHWYQQLPGTAPKLLIYGNSNRPSGVPDRFSGSKSGTSASLAITGLQAEDEADYYCQSYDSSLSGSVFGGGTKLTVL
notes: also called FC08抗体

Key:
[1] = biological target: SARS-CoV-2 Spike蛋白(刺突蛋白) of the isolate BetaCoV/JS03/human/2020, on live virus (SARS-CoV-2, UniProt P0DTC2 14-1273); experiment: cell-based or functional assay
[2] = biological target: 重组SARS-CoV-2刺突蛋白胞外区 (extra cellular domain of spike protein, S-ECD) (SARS-CoV-2, UniProt P0DTC2 14-1213); experiment: SPR, Biacore 8K, S-ECD immobilised on a CM5 chip, antibody 125-7.8 nM
[3] = biological target: SARS-CoV-2 Spike蛋白(刺突蛋白) of the isolate BetaCoV/JS03/human/2020, on live virus (SARS-CoV-2, UniProt P0DTC2 14-1273); experiment: cell-based or functional assay; remark: listed apart in the source
[4] = biological target: 重组SARS-CoV-2刺突蛋白胞外区 (extra cellular domain of spike protein, S-ECD) (SARS-CoV-2, UniProt P0DTC2 14-1213); experiment: SPR, Biacore 8K, S-ECD immobilised on a CM5 chip, antibody 125-7.8 nM; remark: listed apart in the source

| Binder | IC50(ng/ml), 体外中和实验 (live virus, Vero E6, CPE) [1] [ng/mL] | Kd [2] [nM] | IC50(ng/ml), 体外中和实验 (live virus, Vero E6, CPE) [3] [ng/mL] | Kd [4] [nM] |
| --- | --- | --- | --- | --- |
| B1 | 818 | 0.5 | – | – |
| B2 | 142 | – | – | – |
| B3 | – | – | 325 | 0.8 |
